Test results taken from patent publication US20080299666A1, “Novel Peptide-Based Borono-Lectin (PBL) Sensors” (University of South Carolina, priority 2007, published 2008).
Values belong to the molecule of their own block, whether it stands above or below them.

Key:
[1] = binding with fructose at pH=8; 480 nm to 450 nm; cited from earlier work
[2] = Binding of control proteins to the PBL library; conditions: fluorescently labeled protein
Experimental: To minimize non-specific binding, the resin was pre-incubated with 1% BSA. When binding glycoproteins to the library (about 10 min. to 12 hr—about 1 ng/mL to 1 mg/mL), 1% BSA and 10% glycerol were also included. The resin was washed extensively with phosphate buffered saline (PBS) after binding.

[3] = Non-specific binding and BSA blocking: FITC-BSA and FITC-Ovalbumin on PBL library, bead fluorescence; conditions: for Mean of luminosity of fluorescent beads: exposure time 832 ms; for Binding to PBL library by bead fluorescence (non-specific vs specific): exposure time 62.4 ms
Description: On the other hand, we used the PBL library to bind FITC labeled bovine serum album (BSA) to observe non-specific binding. There should not be binding between them because there are no carbohydrates on BSA. The experimental results were compared in FIG. 2.14. […] That means the amount of non-specific binding is less than specific binding. In order to see whether the blocking PBL library with BSA is useful to prevent the non-specific binding, we compared the binding samples with and without blocking with BSA. Two fluorescently labeled proteins were used: FITC-BSA and FITC-Ovalbumin. In FIG. 2.14, it is not easy to differentiate the images 2 and 3 under 62.4 ms exposure time. We increased the exposure time to 832 ms and compared quantitatively the luminosity of fluorescent beads (with red circles). The mean of luminosity for image 2 is 63.57 and 38.84 for image 3; while for image 4 and 5, they are 38.63 and 19.86 respectively. […] In one experiment (Table 2.2, row 1 and 4), we counted the rate of hits which decreased when the PBLs were blocked with BSA.

[4] = PBL library response to FITC-tagged CEA at varying concentrations; assay type: binding
Description: Higher sensitivity is achieved using longer integration times on the camera to image the beads, up to 25 ms to obtain the 10 pg/mL image.

[5] = Detection limit of fluorescently-labeled glycoproteins bound to PBL library beads (fluorescence microscopy); assay type: binding
Experimental: To determine how low the concentration is at which we can still differentiate the fluorescence of the beads, the PBL library beads were blocked with 1% BSA and then incubated with varying concentration of FITC-labeled ovalbumin, PSM and CEA and CR-labeled ovalbumin and PSM with the addition of 10% (v/v) glycerol overnight. After washing away unbound glycoproteins, fluorescence images were obtained. The PBL library without addition of glycoprotein was used as a control sample. Here, the limit of glycoprotein detection is defined as the lowest concentration of fluorescently-labeled glycoproteins at which their binding to PBL library beads can give enough fluorescence intensity for visual observation. However, the concentration limits are also exposure time dependent, e.g., for FITC-Ovalbumin, and FITC-BSM, the lowest concentrations for visual observation of fluorescence under exposure time 252 ms are about 10 μg/ml, but if the exposure time was increased, the fluorescence can be observed even under dilute concentration. For instance, for FITC-Ovalbumin, the detection limit will lower to about 0.1 μg/ml when exposure time is increased to 4.69 s (FIGS. 2.15, 2.16 and Table 2.3). For FITC-CEA, if observed under 252 ms, the fluorescence of beads is strong. Its concentration limit is about 0.1 (μg/ml) under this exposure time (FIG. 2.17). Stronger fluorescence from FITC-CEA if under the same exposure time as others may be due to CEA having more terminal glycans compared to others.
For CR-glycoproteins, since the PBL library itself is lightly fluorescent under excitation wavelength=510-560 nm, in order to avoid high background interference, we chose comparatively lower exposure time (62.4 ms) when we took the images (FIGS. 2.18 and 2.19). Under this exposure time, the concentration limits for CR-Ovalbumin and CR-PSM were 1 μg/ml (Table 2.3). If we mention the concentration limit of screening, we mention exposure time because the concentration limit is exposure dependent.
FITC-glycoprotein or CR-glycoprotein solution was added into the borono-peptide beads and tumbled overnight at room temperature. The beads were then washed by PBS buffer (0.1M, pH=7.3 150 mM NaCl) (for CR-glycoproteins, beads were washed with methanol first and then washed with PBS buffer) and beads were observed under fluorescence microscope (Nikon, eclipse, E600) and pictures were taken.

[6] = PBL library blocked with BSA (images 3 and 5)
[7] = without BSA blocking (images 2 and 4)

Molecule: CN(C)c1ccc(/C=C/c2ccc(B(O)O)cc2)cc1 [DSTBA, 4′-Dimethylaminostilbene-4-boronic acid]
Blue shift of the emission [1]: 30 nm

Binding to the PBL library (qualitative) [2]: no appreciable binding | Mean of luminosity of fluorescent beads [3, 6]: 38.84 | Binding to PBL library by bead fluorescence (non-specific vs specific) [3]: non-specific binding is minimal | Mean of luminosity of fluorescent beads [3, 7]: 63.57
Molecule: FITC-BSA: FITC labeled bovine serum albumin, not a glycoprotein [reference compound]

B1: FITC-CEA: Carcinoembryonic antigen labeled with FITC (conjugate, UniProt P06731 35-685, looked up)
Cell adhesion molecule CEACAM5: KLTIESTPFNVAEGKEVLLLVHNLPQHLFGYSWYKGERVDGNRQIIGYVIGTQQATPGPAYSGREIIYPNASLLIQNIIQNDTGFYTLHVIKSDLVNEEATGQFRVYPELPKPSISSNNSKPVEDKDAVAFTCEPETQDATYLWWVNNQSLPVSPRLQLSNGNRTLTLFNVTRNDTASYKCETQNPVSARRSDSVILNVLYGPDAPTISPLNTSYRSGENLNLSCHAASNPPAQYSWFVNGTFQQSTQELFIPNITVNNSGSYTCQAHNSDTGLNRTTVTTITVYAEPPKPFITSNNSNPVEDEDAVALTCEPEIQNTTYLWWVNNQSLPVSPRLQLSNDNRTLTLLSVTRNDVGPYECGIQNELSVDHSDPVILNVLYGPDDPTISPSYTYYRPGVNLSLSCHAASNPPAQYSWLIDGNIQQHTQELFISNITEKNSGLYTCQANNSASGHSRTTVKTITVSAELPKPSISSNNSKPVEDKDAVAFTCEPEAQNTTYLWWVNGQSLPVSPRLQLSNGNRTLTLFNVTRNDARAYVCGIQNSVSANRSDPVTLDVLYGPDTPIISPPDSSYLSGANLNLSCHSASNPSPQYSWRINGIPQQHTQVLFIAKITPNNNGTYACFVSNLATGRNNSIVKSITVSASGTSPGLSA
modifications: FITC label
PBL library response (microscope image) ([4]; 10 pg/mL CEA, integration times up to 25 ms): responding | PBL library response (microscope image) ([4]; 10 ng/mL CEA): responding

Mean of luminosity of fluorescent beads [3, 6]: 19.86 | Binding to PBL library by bead fluorescence (non-specific vs specific) [3]: fluorescence can be observed clearly | Mean of luminosity of fluorescent beads [3, 7]: 38.63
B2: FITC-Oval: conjugate of fluorescein isothiocyanate and chicken ovalbumin (conjugate, UniProt P01012 2-386, looked up)
Ovalbumin: GSIGAASMEFCFDVFKELKVHHANENIFYCPIAIMSALAMVYLGAKDSTRTQINKVVRFDKLPGFGDSIEAQCGTSVNVHSSLRDILNQITKPNDVYSFSLASRLYAEERYPILPEYLQCVKELYRGGLEPINFQTAADQARELINSWVESQTNGIIRNVLQPSSVDSQTAMVLVNAIVFKGLWEKAFKDEDTQAMPFRVTEQESKPVQMMYQIGLFRVASMASEKMKILELPFASGTMSMLVLLPDEVSGLEQLESIINFEKLTEWTSSNVMEERKIKVYLPRMKMEEKYNLTSVLMAMGITDVFSSSANLSGISSAESLKISQAVHAAHAEINEAGREVVGSAEAGVDAASVSEEFRADHPFLFCIKHIATNAVLFFGRCVSP
modifications: FITC label
notes: conjugate of fluorescein isothiocyanate and chicken ovalbumin
Concentration limit (detection limit) ([5]; FITC label, exposure time 4.69 s): about 0.1 μg/ml | Concentration limit (detection limit) ([5]; FITC label, exposure time 252 ms, beads blocked with 1% BSA, 10% (v/v) glycerol, overnight): 10 µg/mL | Concentration limit (detection limit) ([5]; FITC label, exposure time 252 ms, beads blocked with 1% BSA, 10% (v/v) glycerol, overnight, listed as FITC-Ovalbumin): about 10 μg/ml

B3: CR-Oval: ovalbumin labeled with carboxyrhodamine (conjugate, UniProt P01012 2-386, looked up)
Ovalbumin: B2 Ovalbumin
modifications: carboxyrhodamine label
notes: ovalbumin labeled with carboxyrhodamine
Concentration limit (detection limit) ([5]; CR label, exposure time 62.4 ms, beads blocked with 1% BSA, 10% (v/v) glycerol, overnight): 1 µg/mL
